According to US20210155689A1 (SHANGHAI PHARMAEXPLORER, published 2021):

Tests used:
[1] = molecular target: human LAG-3 protein with hFc tag (hLAG-3-hFc protein) (human) (UniProt P18627); assay: FACS, blocks LAG-3-hFc binding to MHC II on Raji; 22.222 nM
[2] = molecular target: monkey LAG-3 (full length, on the cell surface) (monkey); assay: FACS, HEK293-cLAG-3; 40.000 nM
[3] = molecular target: human LAG-3 (full length, on the cell surface) (human) (UniProt P18627); assay: FACS, HEK293-hLAG-3; 8.000 nM
[4] = molecular target: human LAG-3 protein with hFc tag (hLAG-3-hFc protein) (human) (UniProt P18627); assay: FACS, blocks LAG-3-hFc binding to MHC II on Raji; 66.667 nM
[5] = molecular target: human LAG-3 (full length, on the cell surface) (human) (UniProt P18627); assay: FACS, HEK293-hLAG-3; 0.064 nM
[6] = molecular target: human LAG-3 protein with hFc tag (hLAG-3-hFc protein) (human) (UniProt P18627); assay: FACS, blocks LAG-3-hFc binding to MHC II on Raji; 0.000 nM
[7] = molecular target: human LAG-3 protein with hFc tag (hLAG-3-hFc protein) (human) (UniProt P18627); assay: FACS, blocks LAG-3-hFc binding to MHC II on Raji; 0.823 nM
[8] = molecular target: monkey LAG-3 (full length, on the cell surface) (monkey); assay: FACS, HEK293-cLAG-3; 0.320 nM
[9] = molecular target: human LAG-3 protein with hFc tag (hLAG-3-hFc protein) (human) (UniProt P18627); assay: FACS, blocks LAG-3-hFc binding to MHC II on Raji; 2.469 nM
[10] = molecular target: monkey LAG-3 (full length, on the cell surface) (monkey); assay: FACS, HEK293-cLAG-3; 1.600 nM
[11] = molecular target: human LAG-3 (full length, on the cell surface) (human) (UniProt P18627); assay: FACS, HEK293-hLAG-3; 0.320 nM
[12] = molecular target: human LAG-3 (full length, on the cell surface) (human) (UniProt P18627); assay: cell-based or functional assay
[13] = molecular target: human LAG-3 protein with hFc tag (hLAG-3-hFc protein) (human) (UniProt P18627); assay: FACS, blocks LAG-3-hFc binding to MHC II on Raji; 200.000 nM
[14] = molecular target: human LAG-3 (full length, on the cell surface) (human) (UniProt P18627); assay: FACS, HEK293-hLAG-3; 0.000 nM
[15] = molecular target: human LAG-3 (full length, on the cell surface) (human) (UniProt P18627); assay: FACS, HEK293-hLAG-3; 200.000 nM
[16] = molecular target: human LAG-3 (full length, on the cell surface) (human) (UniProt P18627); assay: FACS, HEK293-hLAG-3; 1.600 nM
[17] = molecular target: monkey LAG-3 (full length, on the cell surface) (monkey); assay: FACS, HEK293-cLAG-3; 0.000 nM
[18] = molecular target: monkey LAG-3 (full length, on the cell surface) (monkey); assay: FACS, HEK293-cLAG-3; 0.064 nM
[19] = molecular target: human LAG-3 (full length, on the cell surface) (human) (UniProt P18627); assay: FACS, HEK293-hLAG-3; 0.013 nM
[20] = molecular target: human LAG-3 protein with hFc tag (hLAG-3-hFc protein) (human) (UniProt P18627); assay: FACS, blocks LAG-3-hFc binding to MHC II on Raji; 7.407 nM
[21] = molecular target: monkey LAG-3 (full length, on the cell surface) (monkey); assay: FACS, HEK293-cLAG-3; 200.000 nM
[22] = molecular target: human LAG-3 (full length, on the cell surface) (human) (UniProt P18627); assay: FACS, HEK293-hLAG-3; 40.000 nM
[23] = molecular target: monkey LAG-3 (full length, on the cell surface) (monkey); assay: FACS, HEK293-cLAG-3; 8.000 nM
[24] = molecular target: monkey LAG-3 (full length, on the cell surface) (monkey); assay: FACS, HEK293-cLAG-3; 0.013 nM
[25] = molecular target: human LAG-3 protein with hFc tag (hLAG-3-hFc protein) (human) (UniProt P18627); assay: FACS, blocks LAG-3-hFc binding to MHC II on Raji; 0.274 nM
[26] = molecular target: T1, human LAG-3 ECD (antigen protein of the affinity test) (human, UniProt P18627 23-450); assay: SPR (CM5 chip), antibody captured by anti-human Fc IgG, antigen protein in flow, 1:1 model
T1 sequence: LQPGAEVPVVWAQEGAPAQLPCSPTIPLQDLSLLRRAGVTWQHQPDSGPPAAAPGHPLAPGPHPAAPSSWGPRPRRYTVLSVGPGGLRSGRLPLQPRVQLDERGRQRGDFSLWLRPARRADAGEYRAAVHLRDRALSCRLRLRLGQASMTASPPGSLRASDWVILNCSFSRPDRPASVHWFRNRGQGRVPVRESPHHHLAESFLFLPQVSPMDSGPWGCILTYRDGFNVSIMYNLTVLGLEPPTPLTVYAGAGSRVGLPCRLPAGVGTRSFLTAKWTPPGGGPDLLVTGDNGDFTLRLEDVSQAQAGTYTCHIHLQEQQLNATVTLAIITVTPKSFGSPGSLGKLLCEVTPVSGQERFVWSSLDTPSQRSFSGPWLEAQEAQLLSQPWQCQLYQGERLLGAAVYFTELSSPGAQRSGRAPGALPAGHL
Method: (§1) First, anti-human Fc IgG was immobilized on the surface of the CM5 chip to 6000-10000 RU by amino coupling method, with FC1 as the reference channel. The coupling process was as follows: a freshly prepared 1:1 mixture of 50 mM NHS and 200 mM EDC was activated for 7 minutes, then injected with 10-50 ug/ml anti-human Fc IgG diluted in 10 mM sodium acetate ph5.0 buffer. The remaining activated sites were blocked with 1M ethanolamine. Then, HBS-EP+ buffer was used to dilute the antibody to be tested to 5 ug/ml (adjustable according to the capture level) and the antibodies were captured on the chip at a flow rate of 10 ul/min to obtain a response value of about 100˜300 RU. Then the antigen protein was diluted to 100 nM (the highest concentration was tentatively 100 nM), and flew through the chip surface at a flow rate of 30 ul/min. If enough signal value was obtained, the antigen-protein was diluted by several concentration gradients, and flew through the chip surface respectively. At the end of each cycle, the chip surface was regenerated with 10 mM Glycine at pH 1.5. The kinetic rate constant needed to be subtracted from the blank control, and the data was fitted with the global fit analysis method 1:1 combination model. The dissociation equilibrium rate constant (KD) was calculated according to the following formula: KD=kd/ka.
(§2) The method was the same as that in Example 5.

[27] = molecular target: T2, human LAG-3 ECD (antigen protein of the affinity test) (human, UniProt P18627 23-450); assay: SPR, antibody captured by anti-human Fc IgG on CM5; ratio of KD values
T2 sequence: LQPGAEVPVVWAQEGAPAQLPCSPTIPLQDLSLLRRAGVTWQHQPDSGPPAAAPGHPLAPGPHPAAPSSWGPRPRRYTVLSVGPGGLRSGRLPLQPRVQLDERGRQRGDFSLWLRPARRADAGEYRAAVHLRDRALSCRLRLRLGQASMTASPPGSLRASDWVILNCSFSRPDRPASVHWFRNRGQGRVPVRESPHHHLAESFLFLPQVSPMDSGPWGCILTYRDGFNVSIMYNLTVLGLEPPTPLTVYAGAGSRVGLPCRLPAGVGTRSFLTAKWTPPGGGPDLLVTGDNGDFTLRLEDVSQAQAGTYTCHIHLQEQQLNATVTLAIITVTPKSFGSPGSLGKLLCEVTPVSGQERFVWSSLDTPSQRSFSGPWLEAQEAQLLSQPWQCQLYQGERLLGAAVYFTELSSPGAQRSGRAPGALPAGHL
Method: as §1, §2

Sequence of monkey LAG-3 (full length, on the cell surface) (monkey) (P18627 other isoform, or with tags, fused parts or gaps limits assumed): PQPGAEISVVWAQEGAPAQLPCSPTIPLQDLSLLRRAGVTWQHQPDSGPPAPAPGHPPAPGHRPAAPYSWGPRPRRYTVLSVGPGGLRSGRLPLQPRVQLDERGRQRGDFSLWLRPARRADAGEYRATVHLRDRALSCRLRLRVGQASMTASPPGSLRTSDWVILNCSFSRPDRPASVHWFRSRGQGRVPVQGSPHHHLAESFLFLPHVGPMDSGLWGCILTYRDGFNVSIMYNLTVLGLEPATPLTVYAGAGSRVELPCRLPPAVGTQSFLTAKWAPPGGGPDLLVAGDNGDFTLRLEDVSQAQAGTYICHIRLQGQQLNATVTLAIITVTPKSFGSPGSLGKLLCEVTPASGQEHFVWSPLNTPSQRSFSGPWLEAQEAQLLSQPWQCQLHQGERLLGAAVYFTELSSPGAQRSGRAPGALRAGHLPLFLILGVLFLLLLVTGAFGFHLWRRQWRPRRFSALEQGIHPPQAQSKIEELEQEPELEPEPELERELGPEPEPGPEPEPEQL

B1: 553G8G8 (mouse antibody purified from hybridoma) (antibody, V domains shown)
VH: RVQLKQSGPGLVQPSQSLSITCTVSGFSLIKYGVHWVRQSPGEGLEWLGVIWRGGITDYNAAFMSRLSITKDNSKSQVFFKMNSLQADDTAIYYCAKWDGPLAMDYWGQGTSVTVSS
VL: DVQMIQSPSSLSASLGDMVTMTCQASQGTNINLNWFQQKPGKAPKLLIYGASNLEDGVPSRFSGSRYGTDFTLTISSLEDEDMATYFGLQHSYLPLTFGAGTKLELK
B1 showed an Inhibition rate (%) [1] of 95.8%, a Mean fluorescence intensity [2] of 112 MFI and a Mean fluorescence intensity [3] of 68.4 MFI. It also gave an Inhibition rate (%) [4] of 96%, a Mean fluorescence intensity [5] of 7 MFI and an Inhibition rate (%) [6] of -12.4%. The Inhibition rate (%) [7] was 15.2%, the Mean fluorescence intensity [8] was 8.8 MFI and the Inhibition rate (%) [9] was 45%. For the same binder, the Mean fluorescence intensity [10] was 28.1 MFI, the Mean fluorescence intensity [11] was 17.1 MFI and the mIL-2 (pg/mL), antigen-specific T lymphocyte stimulation test; antibody 0.016 ug/mL [12] was 98.2 pg/mL. It also gave a mIL-2 (pg/mL), antigen-specific T lymphocyte stimulation test; antibody 0.08 ug/mL [12] of 134 pg/mL, a mIL-2 (pg/mL), antigen-specific T lymphocyte stimulation test; antibody 2 ug/mL [12] of 251 pg/mL and a mIL-2 (pg/mL), antigen-specific T lymphocyte stimulation test; antibody 10 ug/mL [12] of 352 pg/mL. It also gave an Inhibition rate (%) [13] of 95.9%, a Mean fluorescence intensity [14] of 2.7 MFI and a Mean fluorescence intensity [15] of 81 MFI. The Mean fluorescence intensity [16] was 44.4 MFI, the Mean fluorescence intensity [17] was 3.2 MFI and the Mean fluorescence intensity [18] was 4.2 MFI. For the same binder, the Mean fluorescence intensity [19] was 3.9 MFI, the Inhibition rate (%) [20] was 93.8% and the Mean fluorescence intensity [21] was 128 MFI. For the same binder, the Mean fluorescence intensity [22] was 79.4 MFI, the Mean fluorescence intensity [23] was 77.7 MFI and the Mean fluorescence intensity [24] was 3.5 MFI. The Inhibition rate (%) [25] was 8.1%.

B2: 556F6B8 mouse-human chimeric antibody (antibody, V domains shown)
VH: RVQLKQSGPGLVQPSQSLSITCTVSGFSLIKYGVHWVRQSPGEGLEWLGVIWRGGITDYNAAFMSRLSITKDNSKSQVFFKMNSLQADDTAIYYCAKWDGPLAMDYWGQGTSVTVSS
VL: DIVMTQSHKFLSTSVGDRVSITCKASQDVGTTVAWYQQKPGQSPKLLIYWASTRHTGVPDRFTGSGSGTDFTLTISNVQSEDLADYFCQQYSSYPYTFGGGTKLEIK
notes: also called mAb123-556F6B8
B2 gave a Kd [26] of 2.68 nM, a koff [26] of 0.000433 s⁻¹ and a kon [26] of 162000 M⁻¹ s⁻¹.

B3: 405B8H3-1 (D→E) (humanized antibody with hot spot mutation) (antibody, human IgG4, V domains shown)
VH: QVQLVQSGAEVKKPGASVKVSCKASGYTFTDYEMHWVRQAPGQGLEWMGATDPETGNSAYNQKFKGRVTMTRDTSTSTVYMELSSLRSEDTAVYYCISTGWNDWGQGTTVTVSS
VL: DIQMTQSPSSLSASVGDRVTITCKASQDINSYLSWFQQKPGKAPKSLIYRADRLLEGVPSRFSGSGSGTDFTLTISSLQPEDFATYYCLQYDEFPYTFGQGTKLEIK
notes: made as the humanized antibodies (human IgG4 constant region); also called 405B81-13-1 (D→E); hot-spot mutated antibody
With B3 the “fold increase of affinity against the chimeric antibody 405B8H3” value [27] was 1.5 times.
